Experimental findings from publication PMC4318798 (Nature structural & molecular biology, 2015) are described below.

Series [1] deals with the molecule itself. Briefly: SEC-MALS.
Series [2] deals with the molecule itself. The experiment in a line: SEC-MALS. This is another data set of the same source.
Series [3] deals with the molecule itself. The experiment in a line: SEC-MALS. The source holds these as a separate data set. A general note: In gel filtration, larger molecules generally elute earlier.
Series [4] addresses T1, Ctp1 1-150 (Schizosaccharomyces pombe, UniProt O74986 1-150).
T1 sequence: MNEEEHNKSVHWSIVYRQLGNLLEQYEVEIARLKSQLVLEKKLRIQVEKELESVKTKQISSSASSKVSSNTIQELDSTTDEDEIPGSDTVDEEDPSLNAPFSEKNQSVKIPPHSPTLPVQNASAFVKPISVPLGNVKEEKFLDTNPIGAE
The experiment in a line: EMSA. On the technique in general: Mobility shift assays separate free from complexed probe on a gel.

The target in series [5] is T2, Ctp1 151-294 (Schizosaccharomyces pombe, UniProt O74986 151-294).
T2 sequence: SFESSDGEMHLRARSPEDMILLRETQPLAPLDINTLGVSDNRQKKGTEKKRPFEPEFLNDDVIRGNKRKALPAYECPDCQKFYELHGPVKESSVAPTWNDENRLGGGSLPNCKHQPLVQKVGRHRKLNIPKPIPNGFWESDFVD
The experiment in a line: EMSA.

In series [6] the target is T3, Ctp1 61-294 (Schizosaccharomyces pombe, UniProt O74986 61-294).
T3 sequence: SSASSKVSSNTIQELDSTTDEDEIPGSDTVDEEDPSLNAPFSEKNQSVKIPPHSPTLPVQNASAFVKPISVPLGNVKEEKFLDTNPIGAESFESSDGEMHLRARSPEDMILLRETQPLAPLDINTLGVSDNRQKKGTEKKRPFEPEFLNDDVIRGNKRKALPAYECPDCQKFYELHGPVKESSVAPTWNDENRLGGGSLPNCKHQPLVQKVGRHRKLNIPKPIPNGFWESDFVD
Briefly: EMSA.

In series [7] the target is T4, Ctp1 K231A (Schizosaccharomyces pombe, UniProt O74986 1-294, K231A).
T4 sequence: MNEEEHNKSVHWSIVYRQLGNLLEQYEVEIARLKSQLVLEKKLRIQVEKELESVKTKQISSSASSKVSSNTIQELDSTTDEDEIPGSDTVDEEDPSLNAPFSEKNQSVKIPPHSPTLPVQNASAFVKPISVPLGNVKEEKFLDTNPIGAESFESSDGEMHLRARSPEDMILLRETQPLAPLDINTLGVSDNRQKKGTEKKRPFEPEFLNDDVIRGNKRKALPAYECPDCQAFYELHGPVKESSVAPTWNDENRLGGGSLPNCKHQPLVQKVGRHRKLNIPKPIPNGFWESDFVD
Briefly: EMSA.

Series [8] concerns the target T5, Ctp1 R273A (Schizosaccharomyces pombe, UniProt O74986 1-294, R273A).
T5 sequence: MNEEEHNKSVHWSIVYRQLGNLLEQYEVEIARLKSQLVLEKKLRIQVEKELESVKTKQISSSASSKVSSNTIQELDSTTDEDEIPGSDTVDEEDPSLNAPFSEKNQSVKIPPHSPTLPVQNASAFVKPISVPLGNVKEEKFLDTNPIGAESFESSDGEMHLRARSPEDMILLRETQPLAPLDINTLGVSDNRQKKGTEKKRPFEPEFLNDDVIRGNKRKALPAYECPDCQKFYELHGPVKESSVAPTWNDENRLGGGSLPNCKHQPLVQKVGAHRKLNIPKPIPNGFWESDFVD
Briefly: EMSA.

Series [9] concerns the target T6, Ctp1 K276A (Schizosaccharomyces pombe, UniProt O74986 1-294, K276A).
T6 sequence: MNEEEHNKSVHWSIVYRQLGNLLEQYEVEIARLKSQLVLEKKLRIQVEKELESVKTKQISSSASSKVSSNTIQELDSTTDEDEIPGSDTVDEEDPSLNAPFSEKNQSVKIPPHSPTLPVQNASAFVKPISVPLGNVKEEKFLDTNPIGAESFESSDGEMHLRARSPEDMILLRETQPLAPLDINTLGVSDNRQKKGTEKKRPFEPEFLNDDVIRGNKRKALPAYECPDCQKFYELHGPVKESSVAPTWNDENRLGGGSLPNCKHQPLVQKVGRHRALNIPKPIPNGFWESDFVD
Briefly: EMSA.

Series [10] addresses T7, Ctp1 R275A (Schizosaccharomyces pombe, UniProt O74986 1-294, R275A).
T7 sequence: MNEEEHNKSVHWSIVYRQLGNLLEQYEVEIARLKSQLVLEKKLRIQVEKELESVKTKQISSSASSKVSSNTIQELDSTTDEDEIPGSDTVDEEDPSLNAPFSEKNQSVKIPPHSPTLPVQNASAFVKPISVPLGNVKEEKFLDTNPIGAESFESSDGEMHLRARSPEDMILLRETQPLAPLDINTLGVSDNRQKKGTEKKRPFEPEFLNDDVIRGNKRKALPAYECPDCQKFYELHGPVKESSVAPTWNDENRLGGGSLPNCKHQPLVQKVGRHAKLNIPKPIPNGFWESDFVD
Briefly: EMSA.

Series [11] has as its target T8, Ctp1 K219A (Schizosaccharomyces pombe, UniProt O74986 1-294, K219A).
T8 sequence: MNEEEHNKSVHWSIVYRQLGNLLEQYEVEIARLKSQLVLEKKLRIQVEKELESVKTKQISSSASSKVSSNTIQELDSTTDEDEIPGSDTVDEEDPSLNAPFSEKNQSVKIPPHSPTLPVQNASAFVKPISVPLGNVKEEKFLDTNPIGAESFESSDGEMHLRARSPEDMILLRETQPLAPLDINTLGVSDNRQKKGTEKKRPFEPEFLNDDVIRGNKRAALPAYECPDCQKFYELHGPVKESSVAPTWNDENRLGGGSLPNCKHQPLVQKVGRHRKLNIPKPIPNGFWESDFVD
The experiment in a line: EMSA.

The target of series [12] is T9, Ctp1 WT (Schizosaccharomyces pombe, UniProt O74986 1-294).
T9 sequence: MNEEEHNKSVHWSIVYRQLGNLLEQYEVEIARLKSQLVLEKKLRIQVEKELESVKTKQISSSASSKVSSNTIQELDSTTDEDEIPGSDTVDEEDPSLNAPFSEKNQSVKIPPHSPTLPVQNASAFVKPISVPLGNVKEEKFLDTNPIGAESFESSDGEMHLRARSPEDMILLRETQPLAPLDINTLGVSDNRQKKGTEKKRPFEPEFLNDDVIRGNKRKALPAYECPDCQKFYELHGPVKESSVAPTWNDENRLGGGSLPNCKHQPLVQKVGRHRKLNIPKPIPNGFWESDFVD
The experiment in a line: EMSA.

Series [13] deals with the molecule itself. Briefly: crystal structure.

Like-named read-outs stand apart in the source and are kept apart here.

For VYRQLGNLLEQYEVEIARLKSQLVLEKKLRIQVEKELESVKTKQIS (domain or fragment, S. pombe, UniProt O74986 15-60, looked up) [MBP-Ctp1_(15–60)], the stoichiometry N (commonly a count of units in the complex or per binding partner) in series [1] turned out to be 2.

B1: full-length S. pombe Ctp1 (natural protein, UniProt O74986 1-294, looked up)
chain: MNEEEHNKSVHWSIVYRQLGNLLEQYEVEIARLKSQLVLEKKLRIQVEKELESVKTKQISSSASSKVSSNTIQELDSTTDEDEIPGSDTVDEEDPSLNAPFSEKNQSVKIPPHSPTLPVQNASAFVKPISVPLGNVKEEKFLDTNPIGAESFESSDGEMHLRARSPEDMILLRETQPLAPLDINTLGVSDNRQKKGTEKKRPFEPEFLNDDVIRGNKRKALPAYECPDCQKFYELHGPVKESSVAPTWNDENRLGGGSLPNCKHQPLVQKVGRHRKLNIPKPIPNGFWESDFVD
With B1, the “stoichiometry N” value in [2] was 4.

B2: Ctp1 R32A K41A (natural protein, S. pombe, UniProt O74986 1-294, looked up)
chain: MNEEEHNKSVHWSIVYRQLGNLLEQYEVEIAALKSQLVLEAKLRIQVEKELESVKTKQISSSASSKVSSNTIQELDSTTDEDEIPGSDTVDEEDPSLNAPFSEKNQSVKIPPHSPTLPVQNASAFVKPISVPLGNVKEEKFLDTNPIGAESFESSDGEMHLRARSPEDMILLRETQPLAPLDINTLGVSDNRQKKGTEKKRPFEPEFLNDDVIRGNKRKALPAYECPDCQKFYELHGPVKESSVAPTWNDENRLGGGSLPNCKHQPLVQKVGRHRKLNIPKPIPNGFWESDFVD
For B2, the binding result in [3] is “binds”.

B3: 39 bp dsDNA (39bpf/39bpr) (dsDNA)
DNA 1: CAGAGTCATAATATGCAGGTGCAGGTTATTCATGCTCGG
DNA 2: CCGAGCATGAATAACCTGCACCTGCATATTATGACTCTG
With B3, the binding result in series [4] and in series [5] was “no binding” throughout.

B4: fork (ssDNA/splay) (mixed)
DNA 1: GCAGGAGGTGGCGTCGGGTGGACGGGTGGATTGAAATTTAGGCTGGCACGGTCT
DNA 2: AGACCGTGCCAGCCTAAATTTCAATCCAAGGTCTCGACTAACTCTAGTCGTTGT
As to B4, binding in [6] was characterised by a dissociation constant (Kd) of 1000 nM.

B5: 54 bp dsDNA (dsDNA)
DNA 1: GCAGGAGGTGGCGTCGGGTGGACGGGTGGATTGAAATTTAGGCTGGCACGGTCT
DNA 2: AGACCGTGCCAGCCTAAATTTCAATCCACCCGTCCACCCGACGCCACCTCCTGC
As to B5, the binding result in series [7], in [8], in [9], in [10] and in series [11] was “no binding” in each case.

B6: ssDNA 54 nt (ssDNA)
DNA: GCAGGAGGTGGCGTCGGGTGGACGGGTGGATTGAAATTTAGGCTGGCACGGTCT
B6: the binding result in series [12] is “binds”.

B7: Ctp1_(5–60)-L51M (domain or fragment, S. pombe, UniProt O74986 5-60, looked up)
chain: EHNKSVHWSIVYRQLGNLLEQYEVEIARLKSQLVLEKKLRIQVEKEMESVKTKQIS
On to B7, for which the binding result in series [13] is given as “binds”.

B8: Ctp1_(1–60) (domain or fragment, S. pombe, UniProt O74986 1-60, looked up)
chain: MNEEEHNKSVHWSIVYRQLGNLLEQYEVEIARLKSQLVLEKKLRIQVEKELESVKTKQIS
Consider B8, for which, in [2], the “stoichiometry N” value worked out at 4.

B9: MBP-Ctp1_(1–60) (domain or fragment, S. pombe, UniProt O74986 1-60, looked up)
chain: MNEEEHNKSVHWSIVYRQLGNLLEQYEVEIARLKSQLVLEKKLRIQVEKELESVKTKQIS
B9: the “stoichiometry N” value in series [1] came to 4.
